The values below come from publication PMC9307175 (PLoS Pathogens, 2022).

The labels stand for the following.
T1: Flag- and His6-tagged STAT1, bacterially expressed (pET-Flag-STAT1-His6) (human, UniProt P42224 1-750)
T1 construct: also called STAT1 (Flag-tagged); recombinant STAT1; source: E. coli BL21(DE3), purified (Ni-NTA)
T1 sequence: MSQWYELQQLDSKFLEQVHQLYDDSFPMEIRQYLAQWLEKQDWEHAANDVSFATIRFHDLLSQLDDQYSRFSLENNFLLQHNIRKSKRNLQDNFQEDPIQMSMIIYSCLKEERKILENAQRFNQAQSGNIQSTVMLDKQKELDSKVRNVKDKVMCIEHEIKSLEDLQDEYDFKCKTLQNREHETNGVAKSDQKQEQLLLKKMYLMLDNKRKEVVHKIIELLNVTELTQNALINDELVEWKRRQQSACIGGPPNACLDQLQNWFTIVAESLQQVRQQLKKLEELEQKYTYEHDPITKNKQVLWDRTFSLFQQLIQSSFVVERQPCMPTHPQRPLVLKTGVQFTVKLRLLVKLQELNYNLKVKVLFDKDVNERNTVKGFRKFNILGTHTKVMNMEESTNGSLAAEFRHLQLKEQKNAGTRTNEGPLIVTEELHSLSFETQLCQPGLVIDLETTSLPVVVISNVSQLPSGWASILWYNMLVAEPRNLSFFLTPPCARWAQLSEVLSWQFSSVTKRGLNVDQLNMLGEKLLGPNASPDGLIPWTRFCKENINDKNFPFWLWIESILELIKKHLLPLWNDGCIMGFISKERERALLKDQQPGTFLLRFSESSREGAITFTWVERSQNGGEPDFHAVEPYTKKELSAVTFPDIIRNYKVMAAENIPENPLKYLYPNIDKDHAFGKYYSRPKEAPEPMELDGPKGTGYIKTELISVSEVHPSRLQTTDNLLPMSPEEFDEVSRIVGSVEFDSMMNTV

B1: Flag-tagged STAT1 (pCEBZ-STAT1-SF) (natural protein)
chain: T1 sequence
notes: also called STAT1-Flag
B2: Flag- and His6-tagged IRF9, bacterially expressed (pET-Flag-IRF9-His6) (natural protein)
chain: MASGRARCTRKLRNWVVEQVESGQFPGVCWDDTAKTMFRIPWKHAGKQDFREDQDAAFFKAWAIFKGKYKEGDTGGPAVWKTRLRCALNKSSEFKEVPERGRMDVAEPYKVYQLLPPGIVSGQPGTQKVPSKRQHSSVSSERKEEEDAMQNCTLSPSVLQDSLNNEEEGASGGAVHSDIGSSSSSSSPEPQEVTDTTEAPFQGDQRSLEFLLPPEPDYSLLLTFIYNGRVVGEAQVQSLDCRLVAEPSGSESSMEQVLFPKPGPLEPTQRLLSQLERGILVASNPRGLFVQRLCPIPISWNAPQAPPGPGPHLLPSNECVELFRTAYFCRDLVRYFQGLGPPPKFQVTLNFWEESHGSSHTPQNLITVKMEQAFARYLLEQTPEQQAAILSLV
notes: also called IRF9 (Flag-tagged); recombinant IRF9; source: E. coli BL21(DE3), purified (Ni-NTA)
B3: S-peptide and His6 dually-tagged vIRF-1, bacterially expressed (pET-S-vIRF-1-His6) (natural protein)
chain: MDPGQRPNPFGAPGAIPKKPCLSQGSPGTSGSGAPCDEPSRSESPGEGPSGTGGSAAAGDITRQAVVAAITEWSRTRQLRISTGASEGKASIKDWIVCQVNSGKFPGVEWEDEERTRFRIPVTPLADPCFEWRRDGELGVVYIRERGNMPVDASFKGTRGRRRMLAALRRTRGLQEIGKGISQDGHHFLVFRVRKPEEEQCVECGVVAGAVHDFNNMARLLQEGFFSPGQCLPGEIVTPVPSCTTAEGQEAVIDWGRLFIRMYYNGEQVHELLTTSQSGCRISSALRRDPAVHYCAVGSPGQVWLPNVPNLACEIAKRELCDTLDACAKGILLTSSCNGIFCVCYHNGPVHFIGNTVPPDSGPLLLPQGKPTRIFNPNTFLVGLANSPLPAPSHVTCPLVKLWLGKPVAVGKLEPHAPSPRDFAARCSNFSDACVVLEIMPKPLWDAMQ
notes: source: E. coli BL21(DE3), purified (Ni-NTA)
B4: StrepII+Flag (SF)-tagged vIRF-1 (natural protein)
chain: B3 chain

Assay [1] has as its target T2, chitin-binding domain (CBD)-tagged STAT2 (human (HeLa cDNA library), UniProt P52630 1-851).
T2 construct: also called STAT2-CBD; CBD-fused STAT2
Nature of the assay: co-IP. As to conditions: partners not purified.

Assay [2] concerns the target B3. Kind of assay: pull-down. The following applies: both partners purified.
Assay [3] has as its target T1, Flag- and His6-tagged STAT1, …. Kind of assay: pull-down. The following applies: both partners purified.
Assay [4] deals with T3, Flag- and His6-tagged STAT2, bacterially expressed (pET-Flag-STAT2-His6) (human, UniProt P52630 1-851).
T3 construct: also called STAT2 (Flag-tagged); recombinant STAT2; source: E. coli BL21(DE3), purified (Ni-NTA)
T3 sequence (P52630 whole entry): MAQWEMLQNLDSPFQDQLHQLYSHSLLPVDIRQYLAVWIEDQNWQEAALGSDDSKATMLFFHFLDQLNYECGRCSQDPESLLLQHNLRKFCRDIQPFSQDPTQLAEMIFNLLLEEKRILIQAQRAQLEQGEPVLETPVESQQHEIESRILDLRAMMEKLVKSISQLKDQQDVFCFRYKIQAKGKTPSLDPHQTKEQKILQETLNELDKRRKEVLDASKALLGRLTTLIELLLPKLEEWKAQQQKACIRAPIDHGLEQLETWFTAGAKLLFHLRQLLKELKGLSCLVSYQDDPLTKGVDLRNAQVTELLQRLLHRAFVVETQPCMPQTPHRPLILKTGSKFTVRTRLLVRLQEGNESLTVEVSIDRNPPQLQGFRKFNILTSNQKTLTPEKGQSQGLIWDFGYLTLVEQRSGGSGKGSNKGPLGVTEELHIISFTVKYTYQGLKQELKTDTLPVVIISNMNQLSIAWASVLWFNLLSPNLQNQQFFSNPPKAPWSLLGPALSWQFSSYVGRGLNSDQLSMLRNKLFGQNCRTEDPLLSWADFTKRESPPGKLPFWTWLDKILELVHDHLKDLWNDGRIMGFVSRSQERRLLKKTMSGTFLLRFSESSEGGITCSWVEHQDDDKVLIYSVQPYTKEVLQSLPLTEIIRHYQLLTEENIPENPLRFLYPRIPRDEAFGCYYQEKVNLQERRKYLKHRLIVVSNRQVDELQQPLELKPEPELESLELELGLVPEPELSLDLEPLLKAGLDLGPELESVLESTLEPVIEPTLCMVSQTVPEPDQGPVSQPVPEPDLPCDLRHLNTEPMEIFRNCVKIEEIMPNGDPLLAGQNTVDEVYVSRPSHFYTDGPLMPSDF
Nature of the assay: pull-down. The following applies: both partners purified.

T2 sequence (P52630 whole entry, the tested form may be a part): as the sequence (P52630 whole entry) above

B1: the binding result in assay [1] is given as “binds”. Turning to B2, the binding result in assay [2] is “binds”. On to B3, for which the binding result in assay [3] and in assay [4] was “binds” throughout.

In the case of B4, the binding result in assay [1] is listed as “binds”.
